# Measured values published in paper PMC8028046 (Biochemistry, 2021).
# B1: proSP-C BRICHOS WT (domain or fragment, human, UniProt P11686 59-197, looked up)
# chain: HMSQKHTEMVLEMSIGAPEAQQRLALSEHLVTTATFSIGSTGLVVYDYQQLLIAYKPAPGTCCYIMKIAPESIPSLEALTRKVHNFQMECSLQAKPAVPTSKLGQAEGRDAGSAPSGGDPAFLGMAVSTLCGEVPLYYI
# notes: human proSP-C (surfactant protein C precursor), BRICHOS domain, residues 59-197 of UniProt P11686; Mainly trimeric; The mutant's mass of 18328 Da is larger than residues 59-197 alone would give, so the construct probably carries extra residues (surmise); also called proSP-C BRICHOS domain; WT proSP-C BRICHOS domain
# Target: the molecule itself
# Test: SEC; elution profiles of proSP-C BRICHOS WT and T187R
protein,measurement,value
B1,binding result,binds
